Activity data for 4 substances are collected here from patent US20150079657.

Experiment in all cases: cell_activity
The test system of data set [1] is ZF(Oct4+286)-p300 (Artificial Sequence). The note with it: OCT4 mRNA in HEK293; at least 20-fold in K562; H3K27ac increased.
Data set [2] deals with ZF(Sox2+r475)-p300 (Artificial Sequence). The note with it: SOX2 mRNA in HEK293; nearly 2-fold or greater in K562.
Data set [3] deals with ZF(Sox2+185)-p300 (Artificial Sequence). The note with it: SOX2 mRNA in HEK293; nearly 2-fold or greater in K562.
Sequence of ZF(Sox2+185)-p300 (Artificial Sequence) (chain, as listed by the source): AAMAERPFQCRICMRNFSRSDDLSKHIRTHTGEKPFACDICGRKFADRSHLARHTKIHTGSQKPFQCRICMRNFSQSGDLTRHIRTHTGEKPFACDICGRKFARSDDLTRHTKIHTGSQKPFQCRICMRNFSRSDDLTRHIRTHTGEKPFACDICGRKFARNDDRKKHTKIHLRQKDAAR
Data set [4] has as its system ZF(Oct4+420)-p300 (Artificial Sequence). Conditions: OCT4 mRNA in HEK293; at least 20-fold in K562; H3K27ac increased.

Some results are limits rather than exact numbers.

Sequence of ZF(Sox2+r475)-p300 (Artificial Sequence) (chain, as listed by the source): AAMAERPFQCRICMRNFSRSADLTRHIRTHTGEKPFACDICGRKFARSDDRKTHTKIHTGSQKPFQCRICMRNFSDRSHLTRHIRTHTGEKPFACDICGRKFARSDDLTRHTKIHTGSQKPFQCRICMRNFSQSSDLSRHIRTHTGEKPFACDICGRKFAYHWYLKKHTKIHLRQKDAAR
Sequence of ZF(Oct4+420)-p300 (Artificial Sequence) (chain, as listed by the source): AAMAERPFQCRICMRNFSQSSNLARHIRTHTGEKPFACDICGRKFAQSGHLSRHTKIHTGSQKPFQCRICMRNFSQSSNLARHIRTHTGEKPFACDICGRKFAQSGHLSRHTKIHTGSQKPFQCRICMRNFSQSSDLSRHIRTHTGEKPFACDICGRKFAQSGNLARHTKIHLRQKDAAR
Sequence of ZF(Oct4+286)-p300 (Artificial Sequence) (chain, as listed by the source): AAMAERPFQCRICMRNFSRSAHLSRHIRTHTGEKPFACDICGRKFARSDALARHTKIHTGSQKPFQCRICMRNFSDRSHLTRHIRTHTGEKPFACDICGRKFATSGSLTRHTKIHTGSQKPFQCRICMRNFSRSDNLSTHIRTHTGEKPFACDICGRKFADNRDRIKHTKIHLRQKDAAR

In turn, OCT4 +286 target site returned an activity in data set [1] of more than 90 fold.
In data set [2], SOX2 +r475 target site (reverse strand) gave an activity of more than 1.5 fold.
SOX2 +185 target site showed an activity in data set [3] of more than 1.5 fold.
Substance OCT4 +420 target site yielded an activity in data set [4] of more than 90 fold.
